Data on one protein can be found in US20230203197.

The target of the data set is alpha 1 antitrypsin (α1AT), P01009.
Chain of alpha 1 antitrypsin (α1AT), P01009 (P01009 whole entry, looked up): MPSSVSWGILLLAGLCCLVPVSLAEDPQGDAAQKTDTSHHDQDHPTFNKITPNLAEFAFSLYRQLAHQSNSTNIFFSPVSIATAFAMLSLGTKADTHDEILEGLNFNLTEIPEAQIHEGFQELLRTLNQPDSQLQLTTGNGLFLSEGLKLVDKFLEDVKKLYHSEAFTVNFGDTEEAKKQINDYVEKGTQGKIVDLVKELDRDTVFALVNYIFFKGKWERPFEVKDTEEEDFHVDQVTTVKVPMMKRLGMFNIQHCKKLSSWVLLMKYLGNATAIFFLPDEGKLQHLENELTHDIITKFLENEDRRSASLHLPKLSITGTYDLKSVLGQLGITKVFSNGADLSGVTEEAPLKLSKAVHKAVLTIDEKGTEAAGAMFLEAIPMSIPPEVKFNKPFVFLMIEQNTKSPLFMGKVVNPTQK

B1: neutrophil proteinase 3 (PR3), purified native human PR3 (protein)
chain: IVGGHEAQPHSRPYMASLQMRGNPGSHFCGGTLIHPSFVLTAAHCLRDIPQRLVNVVLGAHNVRTQEPTQQHFSVAQVFLNNYDAENKLNDVLLIQLSSPANLSASVATVQLPQQDQPVPHGTQCLAMGWGRVGAHDPPAQVLQELNVTVVTFFCRPHNICTFVPRRKAGICFGDSGGPLICDGIIQGIDSFVIWGCATRLFPDFFTRVALYVDWIRSTLR
Consider B1, for which the “enzymatic activity of PR3 (fluorescent substrate Abz-VADnVADYQ-YNO2)” value is “the addition of alpha 1 anti-trypsin (1AT) which is a natural PR3 inhibitor did not induce any degradation of the PR3 substrate”.
